Data reported in patent US20240158537A1.

Biological target: IL-7 receptor (IL-7R), heterodimer of IL-7R alpha (CD127) and common gamma chain (CD132), on primary human T cells (human) (UniProt P16871)
Test: cell-based or functional assay

Chain of IL-7 receptor (IL-7R), heterodimer of IL-7R alpha (CD127) and common gamma chain (CD132), on primary human T cells (human) (P16871 21-459, chain 1 of 2): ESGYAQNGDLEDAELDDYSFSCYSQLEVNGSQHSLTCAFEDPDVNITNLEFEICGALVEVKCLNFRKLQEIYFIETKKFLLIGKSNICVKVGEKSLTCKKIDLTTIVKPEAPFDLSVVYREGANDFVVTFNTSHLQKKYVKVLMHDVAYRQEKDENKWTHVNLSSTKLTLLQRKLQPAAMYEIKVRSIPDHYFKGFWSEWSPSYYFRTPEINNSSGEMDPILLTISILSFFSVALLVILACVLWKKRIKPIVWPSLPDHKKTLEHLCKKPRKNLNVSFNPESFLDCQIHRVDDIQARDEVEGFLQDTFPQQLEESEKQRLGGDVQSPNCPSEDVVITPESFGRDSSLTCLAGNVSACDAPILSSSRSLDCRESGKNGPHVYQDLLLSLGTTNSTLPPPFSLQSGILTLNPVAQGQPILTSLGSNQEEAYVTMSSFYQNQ
Chain of IL-7 receptor (IL-7R), heterodimer of IL-7R alpha (CD127) and common gamma chain (CD132), on primary human T cells (human) (P31785 23-369, chain 2 of 2, further chain): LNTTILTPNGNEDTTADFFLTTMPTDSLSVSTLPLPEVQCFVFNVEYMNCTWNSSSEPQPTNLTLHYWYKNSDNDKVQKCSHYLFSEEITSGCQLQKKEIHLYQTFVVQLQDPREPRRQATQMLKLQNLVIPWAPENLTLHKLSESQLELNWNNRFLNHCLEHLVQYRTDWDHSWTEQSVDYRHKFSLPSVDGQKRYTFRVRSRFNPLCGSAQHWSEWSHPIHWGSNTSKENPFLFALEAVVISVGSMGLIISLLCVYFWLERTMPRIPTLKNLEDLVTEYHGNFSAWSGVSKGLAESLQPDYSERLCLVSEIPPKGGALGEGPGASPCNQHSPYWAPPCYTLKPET

B1: WT IL-7 His (SEQ ID NO: 2), native IL-7 with His-tag (ligand)
chain: DCDIEGKDGKQYESVLMVSIDQLLDSMKEIGSNCLNNEFNFFKRHICDANKEGMFLFRAARKLRQFLKMNSTGDFDLHLLKVSEGTTILLNCTGQVKGRKPAALGEAQPTKSLEENKSLKEQKKLNDLCFLKRLLQEIKTCWNKILMGTKEHVDHHHHHH
  Avg EC50 (nM) (human pSTAT5), CD4 Memory: 0.001 nM
  Avg EC50 (nM) (human pSTAT5), CD4 Naive: 0.001 nM
  Avg EC50 (nM) (human pSTAT5), CD4 Treg: 0.033 nM
  Avg EC50 (nM) (human pSTAT5), CD8 Memory: 0.006 nM
  Avg EC50 (nM) (human pSTAT5), CD8 Naive: 0.002 nM
